Test results reported in paper PMC3894171, “Defining NELF-E RNA Binding in HIV-1 and Promoter-Proximal Pause Regions”.

Experiments:
dNELF-E(mut) [1] = molecular target: T1, dNELF-E(mut) (Drosophila, UniProt P92204 1-280, N173E;K174D;V175M;E177P;D178T;F179L); assay: fluorescence polarization; 10 mM HEPES-NaOH pH 7.5, 100 mM NaCl, 25 mM KCl, 1 mM MgCl2, 0.02% Tween-20, 0.01% IGEPAL CA-630, 10 µg/ml yeast tRNA; 2 nM RNA, 0-2000 nM protein, 1-2 h, binding temperature not stated; gel 5% acrylamide 0.5X TBE at 4 °C; conditions: protein: recombinant, tags: N-terminal His6 (pHIS-parallel1), label: 3' fluorescein (5-thiosemicarbazide)
T1 sequence: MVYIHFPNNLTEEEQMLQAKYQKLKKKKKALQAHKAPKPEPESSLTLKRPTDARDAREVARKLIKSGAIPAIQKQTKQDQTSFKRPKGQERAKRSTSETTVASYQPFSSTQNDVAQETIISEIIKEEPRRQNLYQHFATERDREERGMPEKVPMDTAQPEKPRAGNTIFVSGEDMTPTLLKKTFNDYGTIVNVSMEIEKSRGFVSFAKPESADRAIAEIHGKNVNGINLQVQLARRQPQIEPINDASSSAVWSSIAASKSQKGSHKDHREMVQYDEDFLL

dNELF-E(mut) [2] = molecular target: T1, dNELF-E(mut); assay: F-EMSA; 10 mM HEPES-NaOH pH 7.5, 100 mM NaCl, 25 mM KCl, 1 mM MgCl2, 0.02% Tween-20, 0.01% IGEPAL CA-630, 10 µg/ml yeast tRNA; 2 nM RNA, 0-2000 nM protein, 1-2 h, binding temperature not stated; gel 5% acrylamide 0.5X TBE at 4 °C; conditions: protein: recombinant, tags: N-terminal His6 (pHIS-parallel1), label: 3' fluorescein (5-thiosemicarbazide)
hNELF-E(mut) [3] = molecular target: T2, hNELF-E(mut) (human, UniProt P18615 1-380, E269N;D270K;M271V;P273E;T274D;L275F); assay: fluorescence polarization; 10 mM HEPES-NaOH pH 7.5, 100 mM NaCl, 25 mM KCl, 1 mM MgCl2, 0.02% Tween-20, 0.01% IGEPAL CA-630, 10 µg/ml yeast tRNA; 2 nM RNA, 0-2000 nM protein, 1-2 h, binding temperature not stated; gel 5% acrylamide 0.5X TBE at 4 °C; conditions: protein: recombinant; tags: N-terminal His6 (pHIS-parallel1); label: 3' fluorescein (5-thiosemicarbazide); hairpin with UCU bulge
hNELF-E(mut) [4] = molecular target: T2, hNELF-E(mut); assay: F-EMSA; 10 mM HEPES-NaOH pH 7.5, 100 mM NaCl, 25 mM KCl, 1 mM MgCl2, 0.02% Tween-20, 0.01% IGEPAL CA-630, 10 µg/ml yeast tRNA; 2 nM RNA, 0-2000 nM protein, 1-2 h, binding temperature not stated; gel 5% acrylamide 0.5X TBE at 4 °C; conditions: protein: recombinant; tags: N-terminal His6 (pHIS-parallel1); label: 3' fluorescein (5-thiosemicarbazide); hairpin with UCU bulge

T2 sequence (P18615 whole entry E269N/D270K/M271V/P273E/T274D/L275F): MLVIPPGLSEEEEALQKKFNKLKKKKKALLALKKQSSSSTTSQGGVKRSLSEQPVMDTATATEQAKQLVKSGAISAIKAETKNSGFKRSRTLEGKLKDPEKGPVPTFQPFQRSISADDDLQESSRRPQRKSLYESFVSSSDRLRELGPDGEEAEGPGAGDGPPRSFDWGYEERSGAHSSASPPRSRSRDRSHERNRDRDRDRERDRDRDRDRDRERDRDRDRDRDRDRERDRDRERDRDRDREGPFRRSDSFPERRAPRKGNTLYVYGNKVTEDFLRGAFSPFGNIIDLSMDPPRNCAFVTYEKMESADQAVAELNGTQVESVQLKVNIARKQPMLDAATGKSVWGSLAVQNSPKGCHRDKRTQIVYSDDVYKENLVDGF

GGCCCCACUGAGGAUGCCCACGGGCGAUUGGGGCCA (structured_RNA) [Napt1min]
Kd (dNELF-E(mut) [1]; putative K-turn stem-loop): 95 ± 6 nM | Kd (dNELF-E(mut) [2]; putative K-turn stem-loop): 350 ± 50 nM

B1: HIV-1 TAR (structured_RNA)
RNA: GGUCUCUCUGGUUAGACCAGAUCUGAGCCUGGGAGCUCUCUGGCUAACUAGGGAACC
Kd (dNELF-E(mut) [1]; hairpin with UCU bulge): 130 ± 10 nM | Kd (hNELF-E(mut) [3]): 153 ± 7 nM | Kd (dNELF-E(mut) [2]; hairpin with UCU bulge): 270 ± 10 nM | Kd (hNELF-E(mut) [4]): 258 ± 17 nM

B2: HIV-1 TAR+A (structured_RNA)
RNA: GGUCUCUCUGGUUAGACCAGAUCUGAGCCUGAGGAGCUCUCUGGCUAACUAGGGAACC
Kd (dNELF-E(mut) [1]; hairpin with UCU bulge): 120 ± 10 nM | Kd (hNELF-E(mut) [3]): 170 ± 5 nM | Kd (dNELF-E(mut) [2]; hairpin with UCU bulge): 280 ± 30 nM | Kd (hNELF-E(mut) [4]): 233 ± 40 nM
